Assay results: publication doi:10.1101/2024.05.23.595592

Molecular target: TREM2 R77D, biotinylated (human) (UniProt Q9NZC2)
Assay: BLI

TREM2 R77D, biotinylated (human), sequence (Q9NZC2 19-230 R77D): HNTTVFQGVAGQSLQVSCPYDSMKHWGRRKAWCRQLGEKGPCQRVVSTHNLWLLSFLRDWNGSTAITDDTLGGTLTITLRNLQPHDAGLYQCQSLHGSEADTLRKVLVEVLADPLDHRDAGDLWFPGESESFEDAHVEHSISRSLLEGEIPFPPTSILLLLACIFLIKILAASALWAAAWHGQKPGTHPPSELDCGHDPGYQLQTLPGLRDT

Kd: 114 nM
B1: Human IL-34 (19-241) (ligand)
chain: LGNEPLEMWPLTQNEECTVTGFLRDKLQYRSRLQYMKHYFPINYKISVPYEGVFRIANVTRLQRAQVSERELRYLWVLVSLSATESVQDVLLEGHPSWKYLQEVETLLLNVQQGLTDVEVSPKVESVLSLLNAPGPNLKLVRPKALLDNCFRVMELLYCSCCKQSSVLNWQDCEVPSPQSCSPEPSLQYAATQLYPPPPWSPSSPPHSTGSVRPVRAQGEGLL
